Data on 1 substance can be found in patent US20240173395A1.

pKd: −log10 of the molar value.

Usually pKd stands for the negative decadic logarithm of the Kd, by convention in mol/L. The low end stands for a high Kd, the high end for a low Kd.

This assay deals with ZIKV sE-WT protein (Zika virus). Briefly: SPR (BIOCORE8000), sE amine-coupled on CM5 chip, antibody as mobile phase.

In turn, 2A10G6 antibody had a pKd of 8.04.
